B1: neutrophil cytosol factor 1 (p47phox), endogenous in THP-1 cells (other)
chain: MGDTFIRHIALLGFEKRFVPSQHYVYMFLVKWQDLSEKVVYRRFTEIYEFHKTLKEMFPIEAGAINPENRIIPHLPAPKWFDGQRAAENRQGTLTEYCSTLMSLPTKISRCPHLLDFFKVRPDDLKLPTDNQTKKPETYLMPKDGKSTATDITGPIILQTYRAIANYEKTSGSEMALSTGDVVEVVEKSESGWWFCQMKAKRGWIPASFLEPLDSPDETEDPEPNYAGEPYVAIKAYTAVEGDEVSLLEGEAVEVIHKLLDGWWVIRKDDVTGYFPSMYLQKSGQDVSQAQRQIKRGAPPRRSSIRNAHSIHQRSRKRLSQDAYRRNSVRFLQQRRRQARPGPQSPGSPLEEERQTQRSKPQPAVPPRPSADLILNRCSESTKRKLASAV
notes: Human by the cell line; also called p47phox, 45K
B2: p22phox, endogenous in THP-1 cells (other)
chain: GQIEWAMWANEQALASGLILITGGIVATAGRFTQWYFGAYSIVAGVFVCLLEYPRGKRKKGSTMERWGQKYMTAVVKLFGPFTRNYYVRAVLHLLLSVPAGFLLATILGTACLAIASGIYLLAAVRGEQWTPIEPKPRERPQIGGTIKQPPSNPPPRPPAEARKKPSEEEAAVAAGGPPGGPQVNPIPVTDEVV

Key:
[1] = molecular target: unlabeled TBK1 (in vitro titration); assay: fluorescence titration of BODIPY FL-labeled MPT63 with unlabeled TBK1, curve fitting, 25 C
[2] = molecular target: unlabeled p47phox (in vitro titration); assay: fluorescence titration of BODIPY FL-labeled MPT63 with unlabeled p47phox, curve fitting, 25 C
[3] = molecular target: unlabeled TBK1 (in vitro titration); assay: fluorescence titration of BODIPY FL-labeled MPT64 with unlabeled TBK1, curve fitting, 25 C
[4] = molecular target: unlabeled HK2 (in vitro titration); assay: fluorescence titration of BODIPY FL-labeled MPT64 with unlabeled HK2, curve fitting, 25 C
[5] = molecular target: T1, p67phox, endogenous in THP-1 cells (human, UniProt P19878 1-526); assay: co-IP in THP-1 cells treated with p47 peptide
T1 sequence: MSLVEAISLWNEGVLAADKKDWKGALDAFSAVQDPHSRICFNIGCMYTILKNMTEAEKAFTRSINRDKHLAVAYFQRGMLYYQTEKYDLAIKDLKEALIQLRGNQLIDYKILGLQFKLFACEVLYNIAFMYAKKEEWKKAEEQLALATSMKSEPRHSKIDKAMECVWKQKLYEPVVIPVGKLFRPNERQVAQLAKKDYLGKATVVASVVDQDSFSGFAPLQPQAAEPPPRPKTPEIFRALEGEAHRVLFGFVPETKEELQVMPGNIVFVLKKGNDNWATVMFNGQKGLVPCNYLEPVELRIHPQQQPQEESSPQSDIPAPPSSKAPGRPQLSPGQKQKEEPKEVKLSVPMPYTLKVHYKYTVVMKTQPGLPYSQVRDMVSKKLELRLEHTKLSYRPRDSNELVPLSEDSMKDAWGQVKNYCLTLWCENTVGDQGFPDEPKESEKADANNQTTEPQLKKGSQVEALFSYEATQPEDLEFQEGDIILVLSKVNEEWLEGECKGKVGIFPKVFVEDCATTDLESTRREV

[6] = molecular target: B1; assay: co-IP in THP-1 cells treated with p47 peptide

Chain of unlabeled TBK1 (in vitro titration) (Q9UHD2 whole entry): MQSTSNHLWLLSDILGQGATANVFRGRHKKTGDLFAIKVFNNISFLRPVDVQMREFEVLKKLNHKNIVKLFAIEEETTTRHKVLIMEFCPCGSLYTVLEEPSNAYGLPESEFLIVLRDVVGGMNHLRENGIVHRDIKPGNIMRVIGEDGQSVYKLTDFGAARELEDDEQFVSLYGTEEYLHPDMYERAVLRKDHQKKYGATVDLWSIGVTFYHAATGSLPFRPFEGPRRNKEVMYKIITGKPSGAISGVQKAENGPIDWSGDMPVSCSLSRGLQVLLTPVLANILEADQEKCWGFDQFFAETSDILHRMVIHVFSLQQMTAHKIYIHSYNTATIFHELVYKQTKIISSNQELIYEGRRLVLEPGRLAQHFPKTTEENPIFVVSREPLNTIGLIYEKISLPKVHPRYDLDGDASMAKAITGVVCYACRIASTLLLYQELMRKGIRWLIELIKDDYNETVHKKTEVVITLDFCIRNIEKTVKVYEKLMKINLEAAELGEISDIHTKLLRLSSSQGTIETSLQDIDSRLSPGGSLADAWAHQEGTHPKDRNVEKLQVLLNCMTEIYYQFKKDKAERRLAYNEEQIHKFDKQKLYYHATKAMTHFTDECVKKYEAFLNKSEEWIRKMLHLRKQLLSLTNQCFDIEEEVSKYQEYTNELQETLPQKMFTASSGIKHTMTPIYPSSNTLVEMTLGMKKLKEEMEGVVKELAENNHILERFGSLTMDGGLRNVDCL

recombinant MPT63 (rMPT63) (from UniProt P9WIP1 30-159)
Kd [1]: 178 nM | Kd [2]: 345 nM

recombinant MPT64 (rMPT64) (from UniProt P9WIN9 24-228)
Kd [3]: 193 nM | Kd [4]: 134 nM

B1
binding result [5]: binds

B2
binding result [6]: binds

— patent US20220378893A1 (INDUSTRY UNIVERSITY COOPERATION FOUNDATION HANYANG …, published 2022)
